Measured values taken from a protein production outcome set (Wang et al. 2014).

Experiment: label from the status in PepcDB records
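Further: failed if final PepcDB status was selected cloned or expressed and not failed if soluble or beyond.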

| Sequence | protein production |
| --- | --- |
| MKSWTILLSTLCLFSCNQQENKFEKYVDPLIGTDIRIVQGKDKNSTEERGQIMPAVGVPHGMTNWVAQTQATEQKCHPPYYYFQDAIQGFRASHWMNGSCTQDYGSITIMPLSNKLEIDPVKRASTFDHTQETATPSYYSVDLNDYDIHAELTGLSRAGIMQFSFEQDGDHYIVIEPNSDEGVAFVEIDPEKKEITGYNPVHRIYQGYGKEAGFSGHFVIQLNEEIADYGVWDSTTITPGRKSAKGQKHAVGAWIKLTSDKPGKILVKVATSFTSIDNARKNLAAEIPGWNFNEVRQASSDIWNQALGQIAVKGNNEKEKVKFYSALYNAHFLPRAFSDVDGSYPRFDGDGQIMKMDHGTYYCDFSQWDTYRAVHPLFSILTPSRNGDMAHSLVLKGQQGGWLPIFPSWNSYTAAMIGDHCIAMIGDAIVKDTPGFDYEEAYTLMRKNAFEANPDSGSYRDGKGRRAMESYLKYNYVPLEDQVTEAFHRREQVSRTLEYAYDDFVLAQVAKKLGKTDDYKALIKRAENYRNVIDPETGYARGRHADGTWIEPFDPFASTSFICEGTPYHYTWYAPQDIAGLIRHMGGKERFINRLDNFFEGNYYWHGNEPGHHIAYLFAYAGEPWKTQKWVHDIINREYFTTPDGLSGNDDAGQMSSWLVFSMVGFYPVCPGMPYYVIGSPSFEESVITLENGKKFTIEAKGASEKNIYIQSATLNGQPYNKSYILHKDIMNGGILSFVMGDSPNKEWASSAGSLPPSMGL | failed |
| MKTDTEWLLCDFHVHTNMSDGHLPLGEVVDLFGKHGVDVVSITDHIVDRRTLEQRKRNGEPLGAITEDKFQDYLKRLWREQKRAWEEYGMILIPGVEITNNTDLYHIVAVDVKEYVDPSLPVEEIVEKLKEQNALVIAAHPDRKKQDEEHLSWYLWANMERFKDTFDAWEIANRDDLFNSVGVKKYRYVANSDFHELWHVYSWKTLVKSEKNIEAIKEAIRKNTDVAIYLMRKNRLSSLSDVI | not failed |
| MKTEKFFTHPIGVFIAAIVATFLWGSAFPFIKLSYVELGIQPQEVGEQILFAGYRFFLSGFMLLLFFKVLGKDMSFKKGTGKQLIQIGLFQTFLQYICFYIGMSYSSGIEGAIISGTSSFFQILLAHFLYKDDALNMRKIIGVSIGFCGVVLVNMPSDGSLSFHFGIGSLLLLSAAMLYSYGNILAKEGSKTLDVGYMTAYQMMFGSIGLLCIGALQVGVMPFTFSLHALLMLIYLSFLSAAGFCIWNTIMKYNKVGKVSMYMFFIPVFGVLLSSMILGEAIHSFVLLGLACVAAGIIVVNRTPAKQKIEKEKQVA | failed |
| MKTESTGKALMVLGCPESPVQIPLAIYTSHKLKKKGFRVTVTANPAALRLVQVADPEGIYTDEMVDLESCINELAEGDYEFLAGFVPNDAAAAYLVTFAGILNTETLAIIFDRDADVLEELVNEIMETLDAEIIAARAHHNPAPLRVRIDRFMEEKP | not failed |
| MKTFHLTTQSRDEMVDITSQIETWIRETGVTNGVAIVSSLHTTAGITVNENADPDVKRDMIMRLDEVYPWHHENDRHMEGNTAAHLKTSTVGHAQTLIISEGRLVLGTWQGVYFCEFDGPRTNRKFVVKLLTD | not failed |
| MKTFIWNSNYETGVAKVDDQHQCLVEIINEYSHLLANNTTTETDIELTLNKLIDYTKFHFKDEEQLMYSVGLDTRHITHHEKLHRDILDEISTLLSDQVTDKLSIARYILDLIIHWLVYHILGTDMNMAKLEHHHHHH | failed |
| MKTFIWNSNYETGVAKVDDQHQCLVEIINEYSHLLANNTTTETDIELTLNKLIDYTKFHFKDEEQLMYSVGLDTRHITHHEKLHRDILDEISTLLSDQVTDKLSIARYILDLIIHWLVYHILGTDMNMAKQMKAIQGGLSARDAYDFEEKIKDKSTEPLLEALNALFIQISERNKDLMELNKTLEAKVISRTQQLSERNKELAILSLTDPLTNMANRRHAMQQLTLLWEESVNNNLPLSCLMIDVDYFKQINDTHGHDIGDVVLIELARVFQHAIRTDDIACRLGGDEFFIICPATELEGGLLIAELINEQVESLSIDISDSQLSLSTSIGVATKTAQMTSIEDLMKAADDGVYSAKSNGRGCTKSIQ | failed |
| MKTFKGKVTTTLAVLSAMSLFAFSASLLAGSLDLSGRSDDDTQQDTGRKPAQIIDFVGVEKGDKVLDLLAGGGYYSELLSRVVGEKGEVTLQIPKAYLKYAEKSIKVRLANDRLKNVTYLLSEADDLKLSENTYDSAFLVLGFHDMFFKEDSWNFTADEVMPQVLTSLKSGGKLLVIDHDATENSGIRDVKSLHRIDSAFVKADLEKRGFKLVKTSKILENNADDHSKLVFVPELRRKTDRFVMLFEKI | failed |
| MKTHFYRLKFKKSIFFAVFLSFFSLLFAVDYFEEGKKLLYADKPQEAVSALFKASQEAGTPKSVYLYLGVAYFRMGKYSEALTYLSQGKDKDILNGHLYYYNIGNVYFLQNQFEASELAYNEAISSNGLYAPAFLNRANTRIKLEKLEGALQDYKIYLNLNPETLQRSSIEKMISLLEGLAEEAERAKALAEAKKAAEEAERLAAEARYKKLMEDVNANLSSVDNADALSAGADNTIDYSEENELD | failed |
| MKTIDLADIQAFLYRESRLLDDKAWDAWLDCYRADAVFWMPSWDDADALVTDPQREISLIYYPNRQGLEDRVFRIKTERSSATVPDTRTSHNIANVERESADGDVHTVRFNWHTLSYRYKTVSSYFGMSRYAIDFSGDAPKIVSKYVVLKNDYINQLIDIYHI | not failed |
| MKTIGLLGGMSWESTIPYYRLINEGVKARLGGLHSASLVLHSVDFHDIEACQSAGDWDRAGEILAEAAVGLQQAGAEGIVLCTNTMHKVADAIAARCQVPFLHIADATGRAIAAKGQRRVALLGTRYTMEQTFYRGRLQEQFAIETLIPEADDRAQINQIIFDELCLGTFSEASRDYYLQTIAALAEQGAEGVIFGCTEIGLLVPAELSPLPVFDTAAIHAEDAVNFMLSAGPTPAA | failed |
| MKTINIVAGGPKNLIPDLTGYTDEHTLWIGVDKGTVTLLDAGIIPVEAFGDFDSITEQERRRIEKAAPALHVYQAEKDQTDLDLALDWALEKQPDIIQIFGITGGRADHFLGNIQLLYKGVKTNIKIRLIDKQNHIQMFPPGEYDIEKDENKRYISFIPFSEDIHELTLTGFKYPLNNCHITLGSTLCISNELIHSRGTFSFAKGILIMIRSTDLEHHHHHH | not failed |
| MKTINVITLVLLIVGGLNWGLVGLFQFDLVAALFGGQDALLSRVVYTLVGISALRQLVPLFRNNHDTAEHHTSPHVRNNP | failed |
| MKTITTTKSPTVKDYIDAYLIERKYCAAPSTLASDLSRAKNINEALGEFPINAVSHTQINMLLVSWHERFRNKTINEHLTILRRISLKAVRDGVIARNPMTGVQNFKTVDPEPNPFTKKELARMHECKNVCTQGQNAVMLNLLTGLRISELIALSWQDINWEREVLYVRRACVLNIYKCPKTKGSVREVDLNPLALKLLKEQLKLTGKRRPQTINILECDNKTFTKDSVSFIFLNTKTNQPFTDAKEFTERFFIKFLEQAGVAHRGVGQLRHTFASQCLTTGISKDWLAVQMGHKSTTMIDKHYGRWIREDSPNYAREAAQHLQDIFGLPQIKPTVTLPAVPHSSLVLLKKLQSKPQLIQLLEGMLESDR | failed |
| MKTKIIGVLGLGIFGQTLAQELSNFEQDVIAIDSNPENVQAVAEVVTKAAIGDITDLAFLKHIGISDCDTVIIATGNSLESSVLAVMHCKKLGVPQVIAKARNLVYEEVLYEIGADLVISPERESGQNVAANLMRNKITDVFQIESDISVIEFKIPKSWVGKTVEQLNIRHKFDLNLIGIRKAKNKPVDTEVPINSPLEEGIILVAIANSDAFQRYDYLGYFNLEHHHHHH | not failed |
| MKTKLMTLQDATGFFRDGMTIMVGGFMGIGTPSRLVEALLESGVRDLTLIANDTAFVDTGIGPLIVNGRVRKVIASHIGTNPETGRRMISGEMDVVLVPQGTLIEQIRCGGAGLGGFLTPTGVGTVVEEGKQTLTLDGKTWLLERPLRADLALIRAHRCDTLGNLTYQLSARNFNPLIALAADITLVEPDELVETGELQPDHIVTPGAVIDHIIVSQESK | not failed |
| MKTKYIIASLGLATLLSFGANAAVHQVNAEQAQNLQPMGTISVSQIGSTPMDMRQEIVAKAEKAGANSYRIIELKEGDNWHATAELYKLEHHHHHH | failed |
| MKTLHVQTASSSYPVFIGQGIRKKACELLTSLNRPLTRIMFVTDEEVDRLYGDEMLHLLQEKWPVKKVTVPSGEQAKSMDMYTKLQSEAIRFHMDRSSCIIAFGGGVVGDLAGFVAATFMRGIDFIQMPTTLLAHDSAVGGKVAVNHPLGKNLIGAFYQPKAVLYDTDFLRSLPEKELRSGMAEVIKHAFIYDRAFLEELLNIHSLRDITNDQLNDMIFKGISIKASVVQQDEKEEGIRAYLNFGHTLGHAVEAEYGYGQITHGDAVALGMQFALYISEKTVGCEMDRKRLVSWLKSLGYPSQIRKETETSVLLNRMMNDKKTRGGKIQFIVLNELGKVADHTFSRNELESWLNKWRLEETS | failed |
| MKTPTSRPVVLCLSGHDPSGGAGLQADIEALLAQGCHAAPAVTALTVQDTVNVSDFRVLDREWVLAQANAVLADLPVAAVKLGMLGSLEMVDTVAEILAAHPHLPVVCDPVLRAGGGGALGKGDVGFAMRERLLPRATIATPNLPEARLLADLPEGSADQCAERLLEHCEHLLITGGHGDESEVHNRLYSRDGSRRTFTCQRLPGSYHGSGCTLASALAGRIALGEALHGAVQSALDYTWRTLRDAESPGHGQYVPRRLPTDFCH | failed |
| MKTRLLPVAPSAGTLPGLPDAAELAVLRAWHAGLSAREAVERYLGERRAPGQSSRGILGRIRRQLAAFARRRQREDLALLFEIAATERARQGRVADQAVELLRTLPLPEPAISDDVALWLDARAVTVLRAAGIDTLADLTVRVPRRRRWWAAIPGLGQAGARRIEAFFAEHPRLTERAKALIAEQPRGVVVPWEQLRLPHEVDGSEGQFRAPRETSVLTADNDYEAVQAWLSLHESPATQRAYRKEAERLILWAIIERGRPLSSLTTEDAIAYRGFLRRPSPHERWVGPARPRASADWRPFTDGLSARSIAYSLSVLGAMFRWLIQQRYVLANPFAGIKVRGGGRTAALDASHAFSEGEWALVRTLADGLEWSYGWEAAAAQRLRFVLDFAYATGLRASELITARLGGIETDRQSDHWLSLIGKGGRAGKVALPPLARTALDRYLVERGLPVTQARWNPQTPLIGALGLDPGGGITGSRLWSVMRRFFRVAADLIERDHTALAEKLRKASPHWMRHTHASHALARGAELTTVRDNLRHASISTTSIYLHGDDVKRARQIEAAFAAK | failed |
| MKTSQEELLPATRRALLHRIAVAQAEGRAPSLAAAVVRGGQTVWYGSRTSVDGHAPDENVQYRIGSITKTFTAVLVLRLRDEGVLDLGDPLEKHLPGTGAGEATIAELLAHTGGLAAESPAPWWERTPGSLRPELADVLGELPLRHPVGRRHHYSNPGYTLLGALVEELRGAPWEEVLRREVLEPLGMRRTSGDPRAPHAGGWAVHPWADVMLPEPAEDLGRMAPAGQLWSTTGDLARFAVFLAQGDERVLSADSVREMRTPAAPAEAADVMSGSAYGLGMQLQYRDGRLLVGHSGSLPGFLANLTVSVEDDLAAVVLVNCTSGPMPSAVAADLVRIVAEAEPRIPEPWRPLPDVDEGVLELAGQWYWGTQAFVLRLTVDGGVSLEPLSGVGRRARLRANGDGTWTGLDGYYAGELLKAVRRPDGSVSHLDLGSFVFTRQPYDEGAPVPGGVDPEGWRGIP | failed |
| MKTSVKFETIFPLTTAPLIQCITNEITCESMANALLYIDAKPIMADDPREFPQMFQQTSALVLNLGHLSQEREQSLLAASDYARQVNKLTVVDLVGYGASDIRNEVGEKLVHNQPTVVKGNLSEMRTFCQLVSHGRGVDGSPLDQSEEAIEELIQALRQQTQKFPQTVFLATGIQDVLVSQEQVIVLQNGVPELDCFTGTGDLVGALVAALLGEGNAPMTAAVAAVSYFNLCGEKAKTKSQGLADFRQNTLNQLSLLMKEKDWFEAVKGRVL | not failed |
